# Test: soluble on expression in E. coli; label from the status in PepcDB or PDB records
row,Sequence,soluble on expression in E. coli
1,MGSDKIHHHHHHCSTDFLDRNPLDKPSNEAFWRTEKDAMAAATGCYNGWFSMDEVIYADCASDNAYNPFTWEGWAVQAAGTATPTDPGYSYMGYGNMVRYNNFLENIHRPEMNEDLRKRLIAEVRFLRAWDYFQKVAHYGDVPLVTSVLEIKNANLPRTEKAKVVEFILKELKEIAPQLPESYSGSDVGRITRGAALTLKARLELFEHQYDDCMATCSEVMGLGYELFLDYKGLFKIANENNSEVILDVQYVESLYGNWVLGVLPPASVGGWCSINPTQSLVDAFECEDGKTIEESEVYDPKEPYLHRDPRLAVTVLAPGNLYEGKRYDPIDVKDPNGDYYAPYGRSKTGYLVRKYVDDLSDYADMWDCGMNAIVMRYAEVLLMYAECKIELNQIDNSVYDILDDIRTRAKMPVVDRTRYTGQEKLRELLRRERRVELAMEGLRWFDICRWKIGEQVLNGKVYGCLLGTVDPVTGALSLTNERIFVENRKFDPAKHYLWPIPQTVIDATPAIVQNPHY,not soluble
2,MGSDKIHHHHHHDSFKTKSGKELTITFIKHGSLMLTYDNHSIQVDPVSEYADYTTFPKADIILITHEHGDHLDPKAIQAVEKSDTEIIANENSQKKLGKGKVLKNGDTDTSISYMKIEAVPAYNTTPGRDKYHPRHRDNGYILTFDGLRVYIAGDTEDIPEMKDLKDIDIAFLPVNQPYTMTVSQAAKAARMFSPKILYPYHYGDTKIGELKDALKDSGIDVRIRELQ,not soluble
3,MGSDKIHHHHHHDSKQSQDLIVKTAQAVSASGIKTTEFPFIAQPFRTSELSFRVGGPIDRLDVYAGNHYKQGSIIAEIDPRDFHIRKERAEAIYHQAKAEFERIEKLYEKNNVSASTYEKTKADYTTAKTAFDTASNELGDTRLTAPFDGYVGEVYIEKYQDVKPAQPVISFIDINRLKIEIYVTQNIAFASHPTDSVRIYFDAQPDKYYKAQIVEVSKGTTRNNLSYLLTAVLPNKEGKLLAGMSGKAIFDAPGTTDLTGVSIPQTALCYRPSEGEYVWVIDTNTRQVNRRTVKKGNLLPGGYVTITEGLRASETVATSGLRFLSDGMKVEISTKTNSL,not soluble
4,MGSDKIHHHHHHDSLTESSSNTFWQTPDDALMALASCYDALQSNQLYNSDQYSLGPLYMDCISDNGGHFNWSGWMEGYDMAMGIHTPSSSIIGSYWKDCYEVISRCNVLIANIDRVDMDASQKAIYQAEAKTIRALMYINLTMTYQDVPFLTAPLTIDEAECEKTDRAAIVAHVMTDLQDAAEVLPQNASSRGHITKGAALSLLGRVALYNEKWDDAIAAYKQVQGLGYSLDPSYAKLFTQSGETSPEIIFAVRYEGPGMSEGAAFNAHWNTPLEAMNGTIDLADAYYCKDGKPTTDTKIAELNGGGGLDVSKPNPAHFENRDPRLYSTLFVPGMLWNGKGGIDTSASNPYANVYGGAAASLSTVYVYKYFDPTDTSNSWDNGQDFYVVRYAEVLLSLAEAMVQKGGYVYSDVTALVNEVRQRADVNMPTVEEVEGTSLSKDELLEVIKHERRVELAFEGLRLFDLYRWKELDKAVANIENERTMYGLAYEARKFNGERDYVWPLPTAELDTNKKLVQHDLWK,not soluble
5,MGSDKIHHHHHHEDEKSPVMELQKASAFEPFSQSDFTFNDENAAAEFPEIKWTAADYGVKAVVNYDVTLTNDANAKTVLLGETGTTSLKFTNGQMNTMMAKVGAYPGQTYNFTITLTSKAYDMTADPASNSITFKATLFDPNAVDWKFAYVAVGYPDWDYTNAYLLGDPDGDGVYQGYANFDADGVSYAIIDGSDLTKILAKDQTAAKKGFYGIKVDAEGKVEQTEPLVWGVVGDATSGGWDKDTQMDYDATTRLWTVTTSLLDKEFKFRSNNNWDSDNYGAVSGKESELEGELVAGPNNFKVLKASPYVITMNLTNAGKYSYSMVETTIELSSAEMALPGSYQGWDATKDDCYKVQSAARDFIYTGTFYFDADTKFKFWDAGVWIGMMGPISWDEAKNIGTFVLMPSDGDNIKIETAGYYRVGADMKKLTASLTKTGWEIIGDATPGGWDKGTVMNYDPATKLWSVDVTLVAGEMKFRWDGAWTVNLGGSLGALTQDGANMKVTAGAYTIVLNPDAKTATMTKK,not soluble
6,MGSDKIHHHHHHENEYITNIDRTFGTRISYEISKRYGELGLEGSRSITIGLKGHAGQSFCAFLAKGVSVTLEGDANDYVGKCLSGGKIVIFPPKAASYKSEENSVIGNVALYGATSGDCWFRGVAGERFAVRNSGANVIVEAVGDHGCEYMTGGRVIVLGSIGRNFAAAMSGGIAYLFAQEDNFSRLINAATVDLDDASTEDLIFVKAK,not soluble
7,MGSDKIHHHHHHENLYFQGMIESIQELLQKEAQAVLNIPVTDAYEKAVELIVEQIHRKKGKLVTSGMGKAGQIAMNIATTFCSTGIPSVFLHPSEAQHGDLGILQENDLLLLISNSGKTREIVELTQLAHNLNPGLKFIVITGNPDSPLASESDVCLSTGHPAEVCTLGMTPTTSTTVMTVIGDILVVQTMKRTEFTIEEYSKRHHGGYLGEKSRKLCVK,soluble
8,MGSDKIHHHHHHENLYFQGMTKAIQSSVQVGELATGQALTVPIYSFMGSENSAPSVYIQANVHGAEVQGNAVIYQLMTLLEGYQVLGDITLAPLANPLGINQKSGEFTLGRFDPITGVNWNREYFDHNVDIQNWYAEHQHLTNSELFCAYRSMLVETCQARLTHSFGISTGHRLAVNLQAMAHQADIVLDLHTGPKSCKHLYCPEYDIDAARFFSIPYTLIIPNSFGGAMDEATFCPWWQLTEYATSQGREFSVPVSAFTLELASQERIDLADALEDAKGILAYLSHRGVIAEKVNPASMERFGCYLKDYKKFHAPKAGLIEYCASVGEPLTAGKPLVNILRIDLYGSEQAYQAISLPMDCVPILHFASASVLQGTELYKVMTNVFPLQPS,soluble
9,MGSDKIHHHHHHENLYFQGMWEIYDAMINGIPEDFLVDELVCGTTHSVIRSGNGVGLGPNRPFETRMPMLTQNLLGLPLRVAAGCVKSWNYVEASIGLAAINAYYNNPQVAREHGVIFSDAKRVEDRMNDPFIMSQNEVKGKKVGVVGHFPHLESLLEPICDLSILEWSPEEGDYPLPASEFILPECDYVYITCASVVDKTLPRLLELSRNARRITLVGPGTPLAPVLFEHGLQELSGFMVKDNARAFRIVAGAEKVKIYSAGQKVTIKK,soluble
10,MGSDKIHHHHHHETRECIYYNANWELERTNQSGLERCEGEQDKRLHCYASWRNSSGTIELVKKGCWLDDFNCYDRQECVATEENPQVYFCCCEGNFCNERFTHLPEPG,soluble
11,MGSDKIHHHHHHFKLLAADGDSLLVGARNAVYNLSLSTLSVNHKIDWKPPAEHIEECIMKGKSKTDCQNYIRVLARKSAGVSLVCGTHAFSPKCREYTVTEFGIRNTRQFDGQGISPYDPKHNSSALYVPGTNQLFVATVTDFVGNDALIYRKTIDETPSSKSAANIRTQSYDARVLNAPNFVATFAYKEHVYFWFREIASEAIDNNEEPQIYARVARVCKNDKGGARPANERWTSYLKARLNCSLPSGSSPFYFNELKAVSDPIDAGNNNHVVYTVFSTPDSDVRMSAVCKFSMKKIREEFDNGTFKHQNNAQSMWMAFNRNEVPKPRPGSCSPDSTKLPENTVSFILHHPLLHRPIPSVAAPLLVEGADRADLTQITVLPRVRAVGGHNYDILFIGTSDGKVLKVVEVDGNATVIQSATVFQRGVPIVNLLTTKES,not soluble
12,MGSDKIHHHHHHGKPLRKVDLLADIRPDVEEEVCDSDTIVLPPPVKPIFVDTCKTGITCIEDYSDSTMRGMKHFYEALSKVKTMKRPVRIAYFGDSFIEADIFTADLREMLQQEFGGCGVGYVPVTSSISGYRPTVRHTFGGWSSHSSNDSVGFDKMQQDISGHYFFPREGAYVQLKGQSKYASRLDTCEVSTFYFLNKGFAAVRSKVNNAAEGELHEEVGTGGVQAVSVRGRIGQVRWSVEQADSVTFYGVAMDGRQGISLDNFSVRGSSGLHLRSIPLHTLCDFQRLRPYDLIVVQYGLNVATERGVKYDGYKKGMLSVIEHLKTAFPETSILLVSVGDREYKNENGDLRTMPGVKNLIRYQQSIAADSHIAFWNMYEAMGGQGSIVDMIGQKMANLDYTHINFKGGKHLAGILFETLMYGKEQYERRKAYEEE,not soluble
13,MGSDKIHHHHHHGNSSTGLSSGGSNVSLEVLKHRPLVEKYAKESDILEYVPILLAIIQVESGGTMEDVMQSSESAGFPPNSLSTEASIKQGCIYFASLVNRAKDIGCDQESIIQSYNYGGGYLDYVGKNGKKYSFALAESFSKEKSDGEKVTYSNPIAIKENGGWRYNYGNMFYVMLVKQYLTTTKFDDKTVQGIFDEAFKYEGTAYVFGGSSPATGFDCSGLTQWCYAKVGLQLPRVAQDQYDAMSHIELKDAKPGDLIFFHSTYDAGTYVTHVGIYAGDNRMFHAGDPVGWTNLTETYWQQHIIGAGRYKNRKGDR,not soluble
14,MGSDKIHHHHHHGSITVILGPMFSGKTTELLRLHDRQIIAKRTCVLVKYAGDTRYDADLVATHSKMTGQGRTVKAHRLSEVQSQIFNDEVQVVSIDEGQFFEDLAETCEELAQRGKVVCVAALNGTFERKPFPQISLLLPYANEIKQVTAVCVECGSQANFSFRSTLDKKVEVIGGSDTYTALCRECY,not soluble
15,MGSDKIHHHHHHHPHSFVDLKNKVLVDGTQLKGFQMEWTMDEIASAELIYEVKNNPDHQAAKKSITAEMEQTAIENHYFSYLYNAKDQPLKFSVKPSNTTFRIAGNRVVFYITFYLSKPYDLKNNAIRFYTYEPSYYMAMEYNNQQDLSINSSECKAKLTQPNVNNSLRLYASSLDKNQKPNMPDGEDNSLGAQFAQTVEVVCE,not soluble
16,MGSDKIHHHHHHIASQENCSNKEDLTNRAEDFQSDFVKTMDIIKEHHVAYGNSNARNMLEVREQILQEKGFDDIYVQKKHAENCTAIAELPRVLAKIDELKNTGDEKTVLEYVSRGLLAGNVFDWGAKEVVKMMNSESGLTFQTAIDHVENRPWLFDGFDSFYKKHKEYKSVLIFVDNSGFDYILGIIPFARELLRNGSRVIICANTSPALNDLTYREMVELAPELKNADSDLAKFIDSNQMMFVQTGQESPCMDARRVHQDLNETVKKFNTDLVVIEGMGRALHTNFNVQFKCDSLKAAVIKTQWLADRLGGKMFSVVFKHE,not soluble
17,MGSDKIHHHHHHIETYNPAEVTFPENVAKVLIVNNAVPQPEDAGYEYTLQGERQDTCKAKADSALFDACRTLGEAIVEASYFNDVLLYHDAVRKDNQAFLDTKLTQGQVASLCDETGADAVISIDRLLFDMKKSVGTLGEGYVMGMIDVQMAGVIRSYVPDREAPLATVHMKDSIYWAESADYMPILDKVLPSPENALRGAGKYFGAKVYANFVPHWEKETRWYFTGMGSRWKEASAYAANEKWDMAEDRWSGLYRGTENWKSRAKAASNLALCHEMRGALKEAYEWAHKSYDLFKRNNGDNDKSTKLLELYVQALAERIRSDKKLNVQFGED,not soluble
18,MGSDKIHHHHHHKDEDPVLPLEGAKLSVAVKASGTATKAYNPNDVNELEGEAYINNLAVVVFNETGTELLGYKWEALSGAEHSAIIADVPTTKAVRARIIVLANVPRDLLSTVSTYDEFQTRLVDLSSQSQTNLTMSSQVIVTKSALSEEDNYLGYTDLGDQNVDGISDPILLTRVAARIDLVNISTRFAGTPFAGREVRIDAVGIYNMKTKSYYFSEADWGETEAPDAVRNSEDTSFEDLLVNDGTSISNTPFVHYVMENMKSDDHTMIAVKATLRGNSSYQDHTKIFTAVINAGGLQNGYDHNFIRRNYVYRLRIYFDGESFDNIPVTPDPGPGPDPEPEVDTNLNIAVQVVGWGPVMQHPVID,not soluble
19,MGSDKIHHHHHHKQTVSSESTEELDDASKVINYYHMSLAVLRHVANAKDINAVLGYMEQTGKVPEVDPIAPPEIAARDTAELLDPGDYFNPEVRQNLKQNYAGLFNVRTQFYDNFNKFLAYKKSKDTAKTAQLLDENYKLSVELSEYKQVIFDILSPLTEQAESELLADEPLKDQIMAMRKMSGTVQSIMNLYSRKHAMDGVRIDLKMAELEKELKAAEKIPAVTGYDEELKNFQSFLSTVKSFMNDMQKARSKGAYSDKEYQAMSEAYEYGLSVI,not soluble
